# Columns and labels:
# HeLa Kyoto [1] = experiment: solubility in G1/S (NP-40 vs SDS abundance) (log2 ratio); higher = more soluble; conditions: cell cycle stage: G1/S
# HeLa Kyoto [2] = experiment: melting temperature (median over replicates), in situ; higher = more thermally stable
# HeLa Kyoto [3] = experiment: solubility change mitosis vs G1/S (difference of NP-40 vs SDS log2 ratios) (log2 ratio difference); higher = more soluble in mitosis
# HeLa Kyoto [4] = experiment: thermal stability score vs G1/S (z-score of summed log2 fold changes over temperatures); higher = more thermally stable than in G1/S
# [5] = cell cycle stage: early G1 (4.5 h after nocodazole release)
# 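For melting temperature (median over replicates), in situ in this document: HeLa Kyoto cells synchronized by double thymidine or nocodazole block, proteins quantified by TMT10plex mass spectrometry, three independent biological replicates.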
# 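For solubility change mitosis vs G1/S (difference of NP-40 vs SDS log2 ratios) in this document: synchronized HeLa Kyoto cells (double thymidine block for G1/S, nocodazole release for mitosis), protein amounts in NP-40 versus SDS lysates quantified by mass spectrometry, three biological replicates.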
# 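For solubility in G1/S (NP-40 vs SDS abundance) in this document: HeLa Kyoto cells arrested at G1/S by double thymidine block, proteins quantified by TMT10plex mass spectrometry in mild NP-40 versus SDS extracts, three biological replicates.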
# 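For thermal stability score vs G1/S (z-score of summed log2 fold changes over temperatures) in this document: synchronized HeLa Kyoto cells, proteins quantified by TMT10plex mass spectrometry, three biological replicates, mitosis taken 0.5 h after nocodazole release, G1/S directly after double thymidine block.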
# Chain of BAG3 (chain, as listed by the source): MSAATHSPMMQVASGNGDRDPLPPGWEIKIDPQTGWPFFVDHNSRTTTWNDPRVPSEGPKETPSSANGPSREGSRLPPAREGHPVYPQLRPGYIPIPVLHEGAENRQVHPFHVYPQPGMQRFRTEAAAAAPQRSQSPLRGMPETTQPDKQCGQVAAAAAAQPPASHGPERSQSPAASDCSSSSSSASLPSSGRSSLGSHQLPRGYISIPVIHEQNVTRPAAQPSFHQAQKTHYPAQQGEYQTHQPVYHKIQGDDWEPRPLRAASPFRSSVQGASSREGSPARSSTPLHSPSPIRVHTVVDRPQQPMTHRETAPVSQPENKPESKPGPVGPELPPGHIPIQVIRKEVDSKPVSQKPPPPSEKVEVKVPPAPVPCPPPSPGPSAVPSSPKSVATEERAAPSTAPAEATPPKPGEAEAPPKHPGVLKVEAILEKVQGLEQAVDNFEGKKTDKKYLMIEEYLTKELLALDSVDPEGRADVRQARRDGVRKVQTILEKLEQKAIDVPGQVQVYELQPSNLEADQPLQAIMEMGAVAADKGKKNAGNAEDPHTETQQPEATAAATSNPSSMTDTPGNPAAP
Substance,solubility in G1/S (log2) (HeLa Kyoto [1]),melting temperature (HeLa Kyoto [2]; cell cycle stage: G1/S),melting temperature (HeLa Kyoto [2]; cell cycle stage: mitosis),solubility change mitosis (log2) (HeLa Kyoto [3]),thermal stability score (HeLa Kyoto [4]; [5]),thermal stability score (HeLa Kyoto [4]; cell cycle stage: mitosis)
MFVPRSLKIKRNANDDGKSCVAKIIKPDPEDLQLDKSRDVPVDAVATEAATIDRHISESCPFPSPGGQLAEVHSVSPEQGAKDSHPSEEPVKSFSKTQRWAEPGEPICVVCGRYGEYICDKTDEDVCSLECKAKHLLQVKEKEEKSKLSNPQKADSEPESPLNASYVYKEHPFILNLQEDQIENLKQQLGILVQGQEVTRPIIDFEHCSLPEVLNHNLKKSGYEVPTPIQMQMIPVGLLGRDILASADTGSGKTAAFLLPVIMRALFESKTPSALILTPTRELAIQIERQAKELMSGLPRMKTVLLVGGLPLPPQLYRLQQHVKVIIATPGRLLDIIKQSSVELCGVKIVVVDEADTMLKMGFQQQVLDILENIPNDCQTILVSATIPTSIEQLASQLLHNPVRIITGEKNLPCANVRQIILWVEDPAKKKKLFEILNDKKLFKPPVLVFVDCKLGADLLSEAVQKITGLKSISIHSEKSQIERKNILKGLLEGDYEVVVSTGVLGRGLDLISVRLVVNFDMPSSMDEYVHQIGRVGRLGQNGTAITFINNNSKRLFWDIAKRVKPTGSILPPQLLNSPYLHDQKRKEQQKDKQTQNDLVTGANLMDIIRKHDKSNSQK [DDX59],0.419,50.8 °C,50.3 °C,-0.18,1.04,1.76
MLGRSLREVSAALKQGQITPTELCQKCLSLIKKTKFLNAYITVSEEVALKQAEESEKRYKNGQSLGDLDGIPIAVKDNFSTSGIETTCASNMLKGYIPPYNATVVQKLLDQGALLMGKTNLDEFAMGSGSTDGVFGPVKNPWSYSKQYREKRKQNPHSENEDSDWLITGGSSGGSAAAVSAFTCYAALGSDTGGSTRNPAAHCGLVGFKPSYGLVSRHGLIPLVNSMDVPGILTRCVDDAAIVLGALAGPDPRDSTTVHEPINKPFMLPSLADVSKLCIGIPKEYLVPELSSEVQSLWSKAADLFESEGAKVIEVSLPHTSYSIVCYHVLCTSEVASNMARFDGLQYGHRCDIDVSTEAMYAATRREGFNDVVRGRILSGNFFLLKENYENYFVKAQKVRRLIANDFVNAFNSGVDVLLTPTTLSEAVPYLEFIKEDNRTRSAQDDIFTQAVNMAGLPAVSIPVALSNQGLPIGLQFIGRAFCDQQLLTVAKWFEKQVQFPVIQLQELMDDCSAVLENEKLASVSLKQ [QRSL1],0.0331,50 °C,50.4 °C,-0.131,-0.191,-0.152
MVISESMDILFRIRGGLDLAFQLATPNEIFLKKALKHVLSDLSTKLSSNALVFRICHSSVYIWPSSDINTIPGELTDASACKNILRFIQFEPEEDIKRKFMRKKDKKLSDMHQIVNIDLMLEMSTSLAAVTPIIERESGGHHYVNMTLPVDAVISVAPEETWGKVRKLLVDAIHNQLTDMEKCILKYMKGTSIVVPEPLHFLLPGKKNLVTISYPSGIPDGQLQAYRKELHDLFNLPHDRPYFKRSNAYHFPDEPYKDGYIRNPHTYLNPPNMETGMIYVVQGIYGYHHYMQDRIDDNGWGCAYRSLQTICSWFKHQGYTERSIPTHREIQQALVDAGDKPATFVGSRQWIGSIEVQLVLNQLIGITSKILFVSQGSEIASQGRELANHFQSEGTPVMIGGGVLAHTILGVAWNEITGQIKFLILDPHYTGAEDLQVILEKGWCGWKGPDFWNKDAYYNLCLPQRPNMI [UFSP2],-0.0543,51.2 °C,51 °C,-0.212,-0.738,-0.716
MSSNECFKCGRSGHWARECPTGGGRGRGMRSRGRGGFTSDRGFQFVSSSLPDICYRCGESGHLAKDCDLQEDACYNCGRGGHIAKDCKEPKREREQCCYNCGKPGHLARDCDHADEQKCYSCGEFGHIQKDCTKVKCYRCGETGHVAINCSKTSEVNCYRCGESGHLARECTIEATA [CNBP],-0.223,57.6 °C,58.8 °C,-0.0883,-1.16,-2.48
MVGVKPVGSDPDFQPELSGAGSRLAVVKFTMRGCGPCLRIAPAFSSMSNKYPQAVFLEVDVHQCQGTAATNNISATPTFLFFRNKVRIDQYQGADAVGLEEKIKQHLENDPGSNEDTDIPKGYMDLMPFINKAGCECLNESDEHGFDNCLRKDTTFLESDCDEQLLITVAFNQPVKLYSMKFQGPDNGQGPKYVKIFINLPRSMDFEEAERSEPTQALELTEDDIKEDGIVPLRYVKFQNVNSVTIFVQSNQGEEETTRISYFTFIGTPVQATNMNDFKRVVGKKGESH [TXNL1],0.258,50.1 °C,50.2 °C,-0.112,-0.465,-0.0973
MATPGNLGSSVLASKTKTKKKHFVAQKVKLFRASDPLLSVLMWGVNHSINELSHVQIPVMLMPDDFKAYSKIKVDNHLFNKENMPSHFKFKEYCPMVFRNLRERFGIDDQDFQNSLTRSAPLPNDSQARSGARFHTSYDKRYIIKTITSEDVAEMHNILKKYHQYIVECHGITLLPQFLGMYRLNVDGVEIYVIVTRNVFSHRLSVYRKYDLKGSTVAREASDKEKAKELPTLKDNDFINEGQKIYIDDNNKKVFLEKLKKDVEFLAQLKLMDYSLLVGIHDVERAEQEEVECEENDGEEEGESDGTHPVGTPPDSPGNTLNSSPPLAPGEFDPNIDVYGIKCHENSPRKEVYFMAIIDILTHYDAKKKAAHAAKTVKHGAGAEISTVNPEQYSKRFLDFIGHILT [PIP4K2A],0.309,49.8 °C,49.4 °C,-0.142,2.24,1.11
MSSSHFASRHRKDISTEMIRTKIAHRKSLSQKENRHKEYERNRHFGLKDVNIPTLEGRILVELDETSQGLVPEKTNVKPRAMKTILGDQRKQMLQKYKEEKQLQKLKEQREKAKRGIFKVGRYRPDMPCFLLSNQNAVKAEPKKAIPSSVRITRSKAKDQMEQTKIDNESDVRAIRPGPRQTSEKKVSDKEKKVVQPVMPTSLRMTRSATQAAKQVPRTVSSTTARKPVTRAANENEPEGKVPSKGRPAKNVETKPDKGISCKVDSEENTLNSQTNATSGMNPDGVLSKMENLPEINTAKIKGKNSFAPKDFMFQPLDGLKTYQVTPMTPRSANAFLTPSYTWTPLKTEVDESQATKEILAQKCKTYSTKTIQQDSNKLPCPLGPLTVWHEEHVLNKNEATTKNLNGLPIKEVPSLERNEGRIAQPHHGVPYFRNILQSETEKLTSHCFEWDRKLELDIPDDAKDLIRTAVGQTRLLMKERFKQFEGLVDDCEYKRGIKETTCTDLDGFWDMVSFQIEDVIHKFNNLIKLEESGWQVNNNMNHNMNKNVFRKKVVSGIASKPKQDDAGRIAARNRLAAIKNAMRERIRQEECAETAVSVIPKEVDKIVFDAGFFRVESPVKLFSGLSVSSEGPSQRLGTPKSVNKAVSQSRNEMGIPQQTTSPENAGPQNTKSEHVKKTLFLSIPESRSSIEDAQCPGLPDLIEENHVVNKTDLKVDCLSSERMSLPLLAGGVADDINTNKKEGISDVVEGMELNSSITSQDVLMSSPEKNTASQNSILEEGETKISQSELFDNKSLTTECHLLDSPGLNCSNPFTQLERRHQEHARHISFGGNLITFSPLQPGEF [DLGAP5],0.097,49.6 °C,49.5 °C,-0.122,0.319,1.63
BAG3,0.185,53.6 °C,53.1 °C,1.06,1.43,5.24
CTBP2,0.144,55.3 °C,53.4 °C,-0.0285,-2.44,-6.63
MSLSENSVFAYESSVHSTNVLLSLNDQRKKDVLCDVTIFVEGQRFRAHRSVLAACSSYFHSRIVGQADGELNITLPEEVTVKGFEPLIQFAYTAKLILSKENVDEVCKCVEFLSVHNIEESCFQFLKFKFLDSTADQQECPRKKCFSSHCQKTDLKLSLLDQRDLETDEVEEFLENKNVQTPQCKLRRYQGNAKASPPLQDSASQTYESMCLEKDAALALPSLCPKYRKFQKAFGTDRVRTGESSVKDIHASVQPNERSENECLGGVPECRDLQVMLKCDESKLAMEPEETKKDPASQCPTEKSEVTPFPHNSSIDPHGLYSLSLLHTYDQYGDLNFAGMQNTTVLTEKPLSGTDVQEKTFGESQDLPLKSDLGTREDSSVASSDRSSVEREVAEHLAKGFWSDICSTDTPCQMQLSPAVAKDGSEQISQKRSECPWLGIRISESPEPGQRTFTTLSSVNCPFISTLSTEGCSSNLEIGNDDYVSEPQQEPCPYACVISLGDDSETDTEGDSESCSAREQECEVKLPFNAQRIISLSRNDFQSLLKMHKLTPEQLDCIHDIRRRSKNRIAAQRCRKRKLDCIQNLESEIEKLQSEKESLLKERDHILSTLGETKQNLTGLCQKVCKEAALSQEQIQILAKYSAADCPLSFLISEKDKSTPDGELALPSIFSLSDRPPAVLPPCARGNSEPGYARGQESQQMSTATSEQAGPAEQCRQSGGISDFCQQMTDKCTTDE [BACH1],-0.0438,53.6 °C,53.1 °C,0.0971,-0.135,-2.84
MATKTAGVGRWEVVKKGRRPGVGAGAGGRGGGRNRRALGEANGVWKYDLTPAIQTTSTLYERGFENIMKRQNKEQVPPPAVEPKKPGNKKQPKKVATPPNQNQKQGRFRSLEEALKALDVADLQKELDKSQSVFSGNPSIWLKDLASYLNYKLQAPLSEPTLSQHTHDYPYSLVSRELRGIIRGLLAKAAGSLELFFDHCLFTMLQELDKTPGESLHGYRICIQAILQDKPKIATANLGKFLELLRSHQSRPAKCLTIMWALGQAGFANLTEGLKVWLGIMLPVLGIKSLSPFAITYLDRLLLMHPNLTKGFGMIGPKDFFPLLDFAYMPNNSLTPSLQEQLCQLYPRLKVLAFGAKPDSTLHTYFPSFLSRATPSCPPEMKKELLSSLTECLTVDPLSASVWRQLYPKHLSQSSLLLEHLLSSWEQIPKKVQKSLQETIQSLKLTNQELLRKGSSNNQDVVTCDMACKGLLQQVQGPRLPWTRLLLLLLVFAVGFLCHDLRSHSSFQASLTGRLLRSSGFLPASQQACAKLYSYSLQGYSWLGETLPLWGSHLLTVVRPSLQLAWAHTNATVSFLSAHCASHLAWFGDSLTSLSQRLQIQLPDSVNQLLRYLRELPLLFHQNVLLPLWHLLLEALAWAQEHCHEACRGEVTWDCMKTQLSEAVHWTWLCLQDITVAFLDWALALISQQ [TMEM214],-0.173,51.1 °C,49.8 °C,0.000207,-1.35,-0.782
MEGGGGSGNKTTGGLAGFFGAGGAGYSHADLAGVPLTGMNPLSPYLNVDPRYLVQDTDEFILPTGANKTRGRFELAFFTIGGCCMTGAAFGAMNGLRLGLKETQNMAWSKPRNVQILNMVTRQGALWANTLGSLALLYSAFGVIIEKTRGAEDDLNTVAAGTMTGMLYKCTGGLRGIARGGLTGLTLTSLYALYNNWEHMKGSLLQQSL [TIMM23],0.455,57.3 °C,55.6 °C,-0.145,-1.18,-2.03
MSKEERPGREEILECQVMWEPDSKKNTQMDRFRAAVGAACGLALESYDDLYHWSVESYSDFWAEFWKFSGIVFSRVYDEVVDTSKGIADVPEWFKGSRLNYAENLLRHKENDRVALYIAREGKEEIVKVTFEELRQEVALFAAAMRKMGVKKGDRVVGYLPNSEHAVEAMLAAASIGAIWSSTSPDFGVNGVLDRFSQIQPKLIFSVEAVVYNGKEHNHMEKLQQVVKGLPDLKKVVVIPYVSSRENIDLSKIPNSVFLDDFLATGTSEQAPQLEFEQLPFSHPLFIMFSSGTTGAPKCMVHSAGGTLIQHLKEHLLHGNMTSSDILLCYTTVGWMMWNWMVSLLATGAAMVLYDGSPLVPTPNVLWDLVDRIGITVLVTGAKWLSVLEEKAMKPVETHSLQMLHTILSTGSPLKAQSYEYVYRCIKSSILLGSISGGTDIISCFMGHNFSLPVYKGEIQARNLGMAVEAWNEEGKAVWGESGELVCTKPIPCQPTHFWNDENGNKYRKAYFSKFPGIWAHGDYCRINPKTGGIVMLGRSDGTLNPNGVRFGSSEIYNIVESFEEVEDSLCVPQYNKYREERVILFLKMASGHAFQPDLVKRIRDAIRMGLSARHVPSLILETKGIPYTLNGKKVEVAVKQIIAGKAVEQGGAFSNPETLDLYRDIPELQGF [AACS],0.0299,48.5 °C,48 °C,-0.129,0.491,1.92
